# Source: patent publication US20020146711A1 (published 2002)
# *: point of attachment. Biotin = O=C1N[C@H]2[C@H](CS[C@H]2CCCCC(=O)*)N1
# T1: SH3 binding peptide: biotin-SGSGILAPPVPPRNTR-COOH (SMILES …)
# T1 peptide: Biotin-SGSGILAPPVPPRNTR-OH
# B1: MMAC1.388-403: biotin-ENEPFDEDQHTQITKV-COOH (peptide)
# peptide: Biotin-ENEPFDEDQHTQITKV-OH
# SMILES: CC[C@H](C)[C@H](NC(=O)[C@H](CCC(N)=O)NC(=O)[C@@H](NC(=O)[C@H](Cc1c[nH]cn1)NC(=O)[C@H](CCC(N)=O)NC(=O)[C@H](CC(=O)O)NC(=O)[C@H](CCC(=O)O)NC(=O)[C@H](CC(=O)O)NC(=O)[C@H](Cc1ccccc1)NC(=O)[C@@H]1CCCN1C(=O)[C@H](CCC(=O)O)NC(=O)[C@H](CC(N)=O)NC(=O)[C@H](CCC(=O)O)NC(=O)CCCC[C@@H]1SC[C@@H]2NC(=O)N[C@@H]21)[C@@H](C)O)C(=O)N[C@H](C(=O)N[C@@H](CCCCN)C(=O)N[C@H](C(=O)O)C(C)C)[C@@H](C)O
# notes: also called MMAC1 C-terminal PDZ peptide
# B2: GST fusion of MMSC2 PDZ domain 5 (P12) (other)
# chain: QHIELEKGSKGLGFSILDYQDPIDPASTVIIIRSLVPGGIAEKDGRLLPGDRLMFVNDVNLENSSLEEAVEALKGAPSGTVRIGVAK
# notes: GST placed N-terminal as in pGEX vectors; also called PDZ domain number 5; not shown: glutathione S-transferase (GST) encoded by pGEX vectors (Pharmacia)
# B3: GST fusion of MMSC2 PDZ domain 1 (P15) (other)
# chain: EVFELLKPPSGGLGFSVVGLRSENRGELGIFVQEIQEGSVAHRDGRLKETDQILAINGQALDQTITHQQAISILQKAKDTVQLVIAR
# notes: GST placed N-terminal as in pGEX vectors; Adsorbed to ELISA wells; also called PDZ domain number 1; not shown: glutathione S-transferase (GST) encoded by pGEX vectors (Pharmacia)
# B4: GST fusion of MMSC2 PDZ domain 4 (P10) (other)
# chain: HVSKFSENSGLGISLEATVGHHFIRSVLPEGPVGHSGKLFSGDELLEVNGITLLGENHQDVVNILKELPIEVTMVCCR
# notes: GST placed N-terminal as in pGEX vectors; also called PDZ domain number 4; not shown: glutathione S-transferase (GST) encoded by pGEX vectors (Pharmacia)
# B5: GST fusion of MMSC2 PDZ domain 12 (P3) (other)
# chain: RTVEMKKGPTDSLGISIAGGVGSPLGDVPIFIAMMHPTGVAAQTQKLRVGDRIVTICGTSTEGMTHTQAVNLLKNASGSIEMQVVA
# notes: GST placed N-terminal as in pGEX vectors; also called PDZ domain number 12; not shown: glutathione S-transferase (GST) encoded by pGEX vectors (Pharmacia)
# B6: GST fusion of MMSC2 PDZ domain 6 (P11) (other)
# chain: RTINIAKGNSSLGMTVSANKDGLGMIVRSIIHGGAISRDGRIAIGDCILSINEESTISVTNAQARAMLRRHSLIGPDIKITYVP
# notes: GST placed N-terminal as in pGEX vectors; also called PDZ domain number 6; not shown: glutathione S-transferase (GST) encoded by pGEX vectors (Pharmacia)
# B7: GST fusion of MMSC2 PDZ domain 10 (P1) (other)
# chain: TTIEISKGRTGLGLSIVGGSDTLLGAIIIHEVYEEGAACKDGRLWAGDQILEVNGIDLRKATHDEAINVLRQTPQRVRLTLYR
# notes: GST placed N-terminal as in pGEX vectors; also called PDZ domain number 10; not shown: glutathione S-transferase (GST) encoded by pGEX vectors (Pharmacia)
# B8: GST fusion of MMSC2 PDZ domain 9 (P7) (other)
# chain: AVDLSSFKNVQHLELPKDQGGLGIAISEEDTLSGVIIKSLTEHGVAATDGRLKVGDQILAVDDEIVVGYPIEKFISLLKTAKMTVKLTIHA
# notes: GST placed N-terminal as in pGEX vectors; also called PDZ domain number 9; not shown: glutathione S-transferase (GST) encoded by pGEX vectors (Pharmacia)
# B9: GST fusion of MMSC2 PDZ domain 7 (P9) (other)
# chain: RRVELWREPSKSLGISIVGGRGMGSRLSNGEVMRGIFIKHVLEDSPAGKNGTLKPGDRIVEVDGMDLRDASHEQAVEAIRKAGNPVVFMVQS
# notes: GST placed N-terminal as in pGEX vectors; also called PDZ domain number 7; not shown: glutathione S-transferase (GST) encoded by pGEX vectors (Pharmacia)
# B10: GST fusion of MMSC2 PDZ domain 3 (P13) (other)
# chain: FDVELTKNVQGLGITIAGYIGDKKLEPSGIFVKSITKSSAVEHDGRIQIGDQIIAVDGTNLQGFTNQQAVEVLRHTGQTVLLTLMR
# notes: GST placed N-terminal as in pGEX vectors; also called PDZ domain number 3; not shown: glutathione S-transferase (GST) encoded by pGEX vectors (Pharmacia)
# B11: GST fusion of MMSC2 PDZ domain 11 (P2) (other)
# chain: LTIELQKKPGKGLGLSIVGKRNDTGVFVSDIVKGGIADADGRLMQGDQILMVNGEDVRNATQEAVAALLKCSLGTVTLEVGR
# notes: GST placed N-terminal as in pGEX vectors; also called PDZ domain number 11; not shown: glutathione S-transferase (GST) encoded by pGEX vectors (Pharmacia)
# B12: GST fusion of MMSC2 PDZ domain 2 (P14) (other)
# chain: ETIELVNDGSGLGFGIIGGKATGVIVKTILPGGVADQHGRLCSGDHILKIGDTDLAGMSSEQVAQVLRQCGNRVKLMIAR
# notes: GST placed N-terminal as in pGEX vectors; also called PDZ domain number 2; not shown: glutathione S-transferase (GST) encoded by pGEX vectors (Pharmacia)
# B13: GST fusion of MMSC2 PDZ domain 8 (P8) (other)
# chain: HMIELEKGHSGLGLSLAGNKDRSRMSVFIVGIDPNGAAGKDGRLQIADELLEINGQILYGRSHQNASSIIKCAPSKVKIIFIR
# notes: GST placed N-terminal as in pGEX vectors; also called PDZ domain number 8; not shown: glutathione S-transferase (GST) encoded by pGEX vectors (Pharmacia)
# B14: GST fusion of MMSC2 PDZ domain 13 (P4) (other)
# chain: KSITLERGPDGLGFSIVGGYGSPHGDLPIYVKTVFAKGAASEDGRLKRGDQIIAVNGQSLEGVTHEEAVAILKRTKGTVTLMVLS
# notes: GST placed N-terminal as in pGEX vectors; also called PDZ domain number 13; not shown: glutathione S-transferase (GST) encoded by pGEX vectors (Pharmacia)
# Molecular target: B14
# Assay: summary of the PDZ binding assay
row,binding result,Binder
1,binds,B1

# Molecular target: B7
# Assay: summary of the PDZ binding assay
row,binding result,Binder
1,binds,B1

# Molecular target: B9
# Assay: summary of the PDZ binding assay
row,binding result,Binder
1,binds,B1

# Molecular target: T1, SH3 binding peptide: …
# Assay: ELISA, GST-PDZ domain on plate, biotin-peptide/streptavidin-alkaline phosphatase complex in solution
# From the text: (§1) cDNAs encoding each of the MMSC2 PDZ domains (amino acid residues identified in Table 1), and any desired control proteins, were generated by PCR and subcloned as glutathione S-transferase (GST) fusions in pGEX vectors (Pharmacia). After sequencing to confirm expression construct integrity, the resulting clones were expressed in E. coli and the desired fusion proteins isolated with glutathione-agarose and recovered with glutathione elution. These fusion proteins or control proteins were then adsorbed to different wells of a 96-well ELISA plate and remaining sites blocked with BSA. Synthetic commercially synthesized peptides encoding the desired PDZ-binding domain (i.e., the 16 C-terminal amino acids of MMAC1, or the C-terminal peptide sequences of interacting proteins identified by the approach of Example 2, or the C-terminal peptide sequences identified by the approach of Example 3), or a control peptide, and biotinylated at the amino-terminus, were pre-bound to streptavidin-alkaline phosphatase in a 4:1 molar ratio. The biotinylated peptide streptavidin-alkaline phosphatase complexes were then blocked with free biotin. These pre-bound peptide streptavidin-alkaline phosphatase complexes were then incubated with the immobilized PDZ domains in wash buffer containing PBS, BSA and triton-X100. Unbound material was removed with repeated washes. Bound peptide/streptavidin-alkaline phosphatase complex was then quantitated by a colorimetric phosphatase assay read on a 96-well plate reader. The following peptides were used in the initial study:
# (§2) The relative affinity of each of the 13 PDZ domains encoded by MMSC2 for an MMAC1 C-terminal PDZ peptide as measured by an ELISA assay is set forth in Table 2.
row,A405,Binder
1,0.005 A405,B2
2,0.007 A405,B3
3,0.01 A405,B4
4,0.011 A405,B5
5,0.017 A405,B6
6,0.002 A405,B7
7,0.009 A405,B8
8,0.006 A405,B9
9,0.008 A405,B10
10,0.009 A405,B11
11,0.006 A405,B12
12,0.008 A405,B13
13,0.006 A405,B14

# Molecular target: B1
# Assay: as above
# From the text: as §1, §2
row,A405,Binder
1,0 A405,B2
2,0.011 A405,B3
3,0.024 A405,B4
4,0.003 A405,B5
5,0.016 A405,B6
6,0.174 A405,B7
7,0.017 A405,B8
8,0.667 A405,B9
9,0.006 A405,B10
10,0.012 A405,B11
11,0.001 A405,B12
12,0.006 A405,B13
13,0.456 A405,B14
